Measured values: publication PMC7037459, “Constitutive Activation of Guanylate Cyclase by the G86R GCAP1 Variant Is Due to “Locking” Cation-π Interactions that Impair the Activator-to-Inhibitor Structural Transition” (International Journal of Molecular Sciences, 2020)

T1: Recombinant human Guanylate Cyclase 1 (human, UniProt Q02846 52-1103)
T1 sequence (looked up): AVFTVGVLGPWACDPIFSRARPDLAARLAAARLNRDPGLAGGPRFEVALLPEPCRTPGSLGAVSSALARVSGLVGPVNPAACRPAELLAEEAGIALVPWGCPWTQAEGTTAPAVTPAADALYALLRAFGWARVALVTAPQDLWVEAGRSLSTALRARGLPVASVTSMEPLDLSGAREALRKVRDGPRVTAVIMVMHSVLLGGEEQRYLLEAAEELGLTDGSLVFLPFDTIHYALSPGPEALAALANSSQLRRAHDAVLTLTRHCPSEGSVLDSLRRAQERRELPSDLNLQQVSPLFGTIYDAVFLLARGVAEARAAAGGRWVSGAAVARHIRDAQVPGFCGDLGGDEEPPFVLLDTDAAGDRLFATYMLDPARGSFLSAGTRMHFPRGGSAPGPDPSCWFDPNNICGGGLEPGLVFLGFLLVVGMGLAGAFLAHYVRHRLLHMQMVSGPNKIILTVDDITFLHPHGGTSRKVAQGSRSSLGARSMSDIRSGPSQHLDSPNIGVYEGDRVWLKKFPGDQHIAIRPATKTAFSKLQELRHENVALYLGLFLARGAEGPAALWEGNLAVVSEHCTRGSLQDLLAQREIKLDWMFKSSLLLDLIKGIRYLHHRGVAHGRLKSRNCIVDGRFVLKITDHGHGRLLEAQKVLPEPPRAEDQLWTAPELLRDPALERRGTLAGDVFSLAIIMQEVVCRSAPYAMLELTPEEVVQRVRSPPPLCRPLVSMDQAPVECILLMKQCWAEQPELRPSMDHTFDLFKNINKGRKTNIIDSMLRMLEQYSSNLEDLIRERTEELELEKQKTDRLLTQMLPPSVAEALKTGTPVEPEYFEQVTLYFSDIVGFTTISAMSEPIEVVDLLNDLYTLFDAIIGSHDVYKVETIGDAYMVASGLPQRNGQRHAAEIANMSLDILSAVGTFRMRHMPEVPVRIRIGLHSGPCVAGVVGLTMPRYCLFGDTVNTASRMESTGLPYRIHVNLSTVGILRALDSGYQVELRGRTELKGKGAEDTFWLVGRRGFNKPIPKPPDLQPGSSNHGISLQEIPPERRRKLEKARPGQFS


Legend:
[1] = target: T1, Recombinant human Guanylate Cyclase 1
[2] = target: T1, Recombinant human Guanylate Cyclase 1; experiment: cell-based or functional assay

Binder | GC activity (cGMP synthesis) of cell membranes containing GC with ~10 µM GCAP1, 1 mM Mg2+ and 2 mM EGTA (absence of Ca2+) (nmol cGMP*min^−1*mg protein^−1) [1] | fold decrease of cGMP synthesis at 33 µM free Ca2+ (inhibiting conditions) against the maximal activation without Ca2+ [1] | fold decrease of cGMP synthesis at 33 µM free Ca2+ against the respective maximal activation without Ca2+ [2]
Guanylate Cyclase activating protein 1 (GCAP1) WT (natural protein, myristoylated forms were obtained by co-transformation with yeast N-myristoyl transferase; which form stood in each experiment is not stated) MGNVMSGKSVEELSSTECHQWYKKFMTECPSGQLTLYEFRQFFGLKNLSPSASQYVEQMFETFDFNKDGYIDFMEYVAALSLVLKGKVEQKLRWYFKLYDVDGNGCIDRDELLTIIQAIRAINPCSDTTMTAEEFTDTVFSKIDVNGDGELSLEEFIEGVQKDQMLLDTLTRSLDLTRIVRRLQNGEQDEEGADEAAEAAG | 20.4 | 34 fold | –
GCAP1 G86R+W94L (natural protein, human, UniProt P43080 1-201, looked up, myristoylated forms were obtained by co-transformation with yeast N-myristoyl transferase; which form stood in each experiment is not stated) MGNVMSGKSVEELSSTECHQWYKKFMTECPSGQLTLYEFRQFFGLKNLSPSASQYVEQMFETFDFNKDGYIDFMEYVAALSLVLKRKVEQKLRLYFKLYDVDGNGCIDRDELLTIIQAIRAINPCSDTTMTAEEFTDTVFSKIDVNGDGELSLEEFIEGVQKDQMLLDTLTRSLDLTRIVRRLQNGEQDEEGADEAAEAAG | – | – | 4 fold
GCAP1 G86R (natural protein, human, UniProt P43080 1-201, looked up, myristoylated forms were obtained by co-transformation with yeast N-myristoyl transferase; which form stood in each experiment is not stated) MGNVMSGKSVEELSSTECHQWYKKFMTECPSGQLTLYEFRQFFGLKNLSPSASQYVEQMFETFDFNKDGYIDFMEYVAALSLVLKRKVEQKLRWYFKLYDVDGNGCIDRDELLTIIQAIRAINPCSDTTMTAEEFTDTVFSKIDVNGDGELSLEEFIEGVQKDQMLLDTLTRSLDLTRIVRRLQNGEQDEEGADEAAEAAG | – | – | 2 fold
GCAP1 G86R+W94F (natural protein, human, UniProt P43080 1-201, looked up, myristoylated forms were obtained by co-transformation with yeast N-myristoyl transferase; which form stood in each experiment is not stated) MGNVMSGKSVEELSSTECHQWYKKFMTECPSGQLTLYEFRQFFGLKNLSPSASQYVEQMFETFDFNKDGYIDFMEYVAALSLVLKRKVEQKLRFYFKLYDVDGNGCIDRDELLTIIQAIRAINPCSDTTMTAEEFTDTVFSKIDVNGDGELSLEEFIEGVQKDQMLLDTLTRSLDLTRIVRRLQNGEQDEEGADEAAEAAG | – | – | 3 fold
